2 molecules from patent publication US20220017612A1 (TILOS THERAPEUTICS, published 2022) can be followed below.

Assay [1] has as its target T1, fusion protein of a human IgG1 Fc domain and human LAP-TGFβ1 (human, UniProt P01137 30-390).
T1 construct: printed both as Fc-huB1 and LAP-TGFβ-Fc; also called Fc-huB1; Fc-human LAP
Kind of assay: BLI, 2:1 model, component 1. The method, then: A streptavidin-functionalized tip was equilibrated in binding buffer (10 mM sodium phosphate, 150 mM sodium chloride, 1% (w/v) bovine serum albumin, 0.05% (w/v) sodium azide, pH 7.4) and dipped in a 5 μg/mL solution of biotinylated antibody (i.e., 20E6_H0.2aL1_hIgG1, murine 16F4, or MHG8, a GARP-specific murine IgG2a described in Lienart et al. Science 2018; 362:952-956) in binding buffer for 30 seconds to load the tip with antibody. The antibody-loaded tip was then washed in binding buffer and placed in a solution containing 0-24 nM of a fusion protein containing a human IgG1 Fc domain fused to either human LAP-TGFβ1, the soluble GARP-LAP-TGFβ1 complex, or the soluble ECR3E-LAP-TGFβ1 complex. The antigen was allowed to bind to antibody for 5 minutes (association phase), and then the tip was moved to binding buffer (dissociation phase). The binding and dissociation data for 16F4 and MHG8 were well-fit by a 1:1 binding model. The association and dissociation phases for 20E6_H0.2aL1_hIgG1 antibody were fit to a 2:1 heterogenous ligand binding model to determine the binding rate constants.
As shown in FIG. 24 and Table 21, the 20E6_H0.2aL1_hIgG1 antibody bound to free LAP-TGFβ1 and the soluble GARP-LAP-TGFβ1 complex with nanomolar affinity, but not to the ECR3E-LAP-TGFβ1 complex. As expected, the anti-GARP antibody (MHG8) bound to the GARP-LAP-TGFβ1 complex, but not to free LAP-TGFβ1 or the ECR3E-LAP-TGFβ1 complex. 16F4 bound tightly to all three constructs.
Background: Biolayer interferometry detects binding as a change in optical thickness at a sensor tip.

The target in assay [2] is murine LAP-TGFβ1 overexpressed on cells (mouse, UniProt P04202 30-390). Briefly: cell-based or functional assay.
Sequence of murine LAP-TGFβ1 overexpressed on cells (P04202 30-390): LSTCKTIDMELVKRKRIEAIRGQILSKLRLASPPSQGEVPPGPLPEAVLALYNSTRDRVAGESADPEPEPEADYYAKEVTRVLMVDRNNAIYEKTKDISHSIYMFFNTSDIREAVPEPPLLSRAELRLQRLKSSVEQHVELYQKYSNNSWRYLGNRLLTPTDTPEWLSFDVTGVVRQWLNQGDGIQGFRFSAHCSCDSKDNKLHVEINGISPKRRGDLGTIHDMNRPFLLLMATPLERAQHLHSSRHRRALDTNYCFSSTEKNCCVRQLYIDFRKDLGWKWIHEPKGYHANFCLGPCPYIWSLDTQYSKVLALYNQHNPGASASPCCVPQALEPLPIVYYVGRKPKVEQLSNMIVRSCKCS
The target of assay [3] is human LAP-TGFβ1 overexpressed on cells (human, UniProt P01137 30-390). Briefly: cell-based or functional assay.
Sequence of human LAP-TGFβ1 overexpressed on cells (P01137 30-390): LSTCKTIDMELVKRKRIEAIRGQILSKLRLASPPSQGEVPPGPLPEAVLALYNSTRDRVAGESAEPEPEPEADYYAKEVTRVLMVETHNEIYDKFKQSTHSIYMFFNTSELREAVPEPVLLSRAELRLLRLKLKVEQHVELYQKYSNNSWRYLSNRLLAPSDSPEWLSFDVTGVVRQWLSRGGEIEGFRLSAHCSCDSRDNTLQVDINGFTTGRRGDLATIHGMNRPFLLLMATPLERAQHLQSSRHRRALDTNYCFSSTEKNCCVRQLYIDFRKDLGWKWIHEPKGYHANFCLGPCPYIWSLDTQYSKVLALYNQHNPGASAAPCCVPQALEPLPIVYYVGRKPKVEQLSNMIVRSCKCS
In assay [4] the target is T2, human LAP-TGFβ3 overexpressed on HT1080 cells (human, UniProt P10600 24-412).
T2 construct: also called HT1080-huB3
T2 sequence: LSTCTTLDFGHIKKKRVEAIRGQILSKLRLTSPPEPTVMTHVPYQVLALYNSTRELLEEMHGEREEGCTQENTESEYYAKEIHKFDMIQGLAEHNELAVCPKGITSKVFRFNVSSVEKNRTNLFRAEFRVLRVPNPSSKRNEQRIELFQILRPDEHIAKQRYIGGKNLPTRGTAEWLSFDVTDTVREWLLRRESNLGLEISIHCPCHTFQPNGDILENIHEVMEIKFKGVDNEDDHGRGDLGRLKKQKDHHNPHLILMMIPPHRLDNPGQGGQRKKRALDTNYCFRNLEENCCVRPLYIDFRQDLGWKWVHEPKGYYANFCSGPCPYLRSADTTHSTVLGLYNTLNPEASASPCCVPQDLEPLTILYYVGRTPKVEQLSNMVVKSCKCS
Kind of assay: flow cytometry titration, HT1080-huB3 cells. The protocol: This Example describes the binding of anti-LAP antibodies to LAP-TGFβ isoforms and LAP-TGFβ variants. In addition to antibodies 28G11_hIgG1, 22F9_hIgG1, and 20E6_hIgG1, anti-LAP antibodies 17G8_hIgG1, 24E3_hIgG1, and 2C9_(hyb) were also tested in this experiment. Briefly, 4×10⁵ each of (a) HT1080 cells, (b) HT1080 cells overexpressing human LAP-TGFβ1, (c) HT1080 cells overexpressing human LAP-TGFβ2, (d) HT1080 cells overexpressing human LAP-TGFβ3, (e) HT1080 cells overexpressing murine LAP-TGFβ1, (f) P3U1 cells, (g) P3U1 cells overexpressing LAP-TGFβ1 and GARP, and (h) P3U1 cells overexpressing LAP-TGFβ1 and LRRC33 were cultured in 96-well plates. The plates were centrifuged for 5 min at 1,500 rpm, liquid was removed, and cells were resuspended with 200 μL FACS buffer. The plates were centrifuged again, diluted primary antibody was added to each well, and the plates were incubated on ice for 20 minutes, followed by centrifugation. The cells were resuspended in 200 μL FACS buffer, centrifuged again, and resuspended in 50 μL diluted secondary antibody (Alexa647-anti-Human IgG or APC-anti-Mouse IgG). The plates were incubated on ice for 20 minutes in the dark, washed twice with 200 μL FACS buffer, and cells from each well (in 200 μL FACS buffer) were read on the Attune NXT instrument.
A general note: A flow cytometer gives signals particle by particle.

Assay [5] deals with T1, fusion protein of a human IgG1 Fc …. Briefly: BLI, signal change on binding. The method, then:
Binding to human TGFβ1 of a subset of candidates was also tested by bio-layer interferometry (Octet). A streptavidin coated tip was equilibrated for 60 seconds in binding buffer (10 mM sodium phosphate, 150 mM sodium chloride, 1% bovine serum albumin, 0.05% sodium azide). The tip was then dipped in 10 μg/mL biotinylated antibody in binding buffer. After 15 seconds, the tip was washed in binding buffer for 60 seconds, and then dipped in 0-24 nM Fc-human LAP. Analyte association was measured for 5 minutes. The tip was transferred to binding buffer alone, and analyte dissociation was measured for 5 minutes. The association and dissociation data were fit to a 1:1 binding model.

Assay [6] concerns the target T3, mature human TGFβ1 (free TGFβ1, without LAP) (human, UniProt P01137 279-390).
T3 construct: also called mature TGFβ; free human TGFβ1
Briefly: TGFβ1 ELISA after pre-incubation of 1000 pg mature TGFβ1 with antibody; loss of signal reflects binding. The method, then:
To determine whether anti-LAP antibodies 28G11_hIgG1, 22F9_hIgG1, 20E6_hIgG1, 17G8_hIgG1, and 24E3_hIgG1, bind to free human TGFβ1 (i.e., mature TGFβ1 that lacks LAP), the ability of the antibodies to inhibit an anti-TGFβ ELISA was evaluated. Briefly, mature TGFβ1 (1000 pg) was incubated with the indicated anti-LAP antibodies at 10 μg/mL, an isotype control antibody as a negative control or the commercially available anti-TGFβ antibody 1D11 as a positive control for 10 minutes on ice. For example, the 1D11 antibody is commercially available from any number of sellers, for example Bio x Cell Inc. (West Lebanon, N.H.). Supernatants were assayed in a TGFβ1 ELISA (R&D Systems) according to the manufacturer instructions to measure free TGFβ1. […] Note that Figure and FIG. are used interchangeably in this application.
(In general: ELISA stands for enzyme-linked immunosorbent assay.)

T1 sequence (P01137 30-390 limits assumed): as the sequence (P01137 30-390) above
T3 sequence (P01137 279-390 limits assumed): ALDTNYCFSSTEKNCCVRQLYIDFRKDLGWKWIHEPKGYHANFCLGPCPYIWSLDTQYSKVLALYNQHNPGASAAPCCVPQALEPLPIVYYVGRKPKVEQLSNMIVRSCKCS

B1: 20E6_H0.2aL1_hIgG1 (antibody)
heavy: not shown
light: DIQMTQSPSSLSASVGDRVTITCRASQDITNYLNWYQQKPGKAVKLLIYYTSRLHSGVPSRFSGSGSGTDYTLTISSLQPEDFATYFCQQGDTLPWTFGQGTKLEIKRTVAAPSVFIFPPSDEQLKSGTASVVCLLNNFYPREAKVQWKVDNALQSGNSQESVTEQDSKDSTYSLSSTLTLSKADYEKHKVYACEVTHQGLSSPVTKSFNRGEC
notes: also called 20E6_H0.2aL1_IgG1; humanized 20E6
A word on the Kd: it is the equilibrium constant for the complex coming apart. A high value points to weaker binding. Broadly, the koff is the first-order rate constant of dissociation. Low values mean a long-lived complex, high ones a short-lived complex. The term kon denotes the rate constant with which the complex forms. On to B1, for which, in assay [1], binding was characterised by a dissociation constant (Kd) of 16.2 nM, the koff was 0.0406 s⁻¹ and the kon came to 2.51e+06 M⁻¹ s⁻¹. In addition, in assay [2], the “IC50 of inhibition of TGFβ1 activation” value is 1.7 µg/mL. Moreover, the “IC50 of inhibition of TGFβ1 activation” value in assay [3] came to 1.3 µg/mL.

B2: 22F9_hIgG1 (antibody, V domains shown)
VH: QVQLQQPGAELVKPGASVKLSCKASGYTFTSYWMHWVKQRPGQGLEWIGMIHPNSGSTNYNEKFKSKATLTVDKSSSTAYMQLSSLTSEDSAVYYCAYYDYDGFFDVWGTGTTVTVSS
VL: DIVLTQSPASLDVSLGQRATISCRASKSVSTSGYSYMHWYQQKSGQPPKLLIYLASNLESGVPARFSGSGSGTHFTLNIHPVEEEDAATYYCQHSRELPYTFGGGTKLEIK
For B2, the binding result in assay [4] is “no binding (tested: about 800 ng/well)”; in assay [6], “no binding (tested: 10 µg/mL)”. Also, the “Binding (nm)” value in assay [5] is 0.27 nm. Besides, in assay [3], the “IC50 of inhibition of TGFβ1 activation” value amounted to 1.8 µg/mL.
